Tests used:
[1] = test system: HeLa Kyoto; assay: solubility in G1/S (NP-40 vs SDS abundance) (log2 ratio); higher = more soluble; settings: cell cycle stage: G1/S
[2] = test system: HeLa Kyoto; assay: thermal stability score vs G1/S (z-score of summed log2 fold changes over temperatures); higher = more thermally stable than in G1/S
[3] = test system: HeLa Kyoto; assay: melting temperature (median over replicates), in situ; higher = more thermally stable
[4] = test system: HeLa Kyoto; assay: solubility change mitosis vs G1/S (difference of NP-40 vs SDS log2 ratios) (log2 ratio difference); higher = more soluble in mitosis
[5] = cell cycle stage: early G1 (4.5 h after nocodazole release)
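Throughout, for melting temperature (median over replicates), in situ: HeLa Kyoto cells synchronized by double thymidine or nocodazole block, proteins quantified by TMT10plex mass spectrometry, three independent biological replicates.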
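Throughout, for solubility change mitosis vs G1/S (difference of NP-40 vs SDS log2 ratios): synchronized HeLa Kyoto cells (double thymidine block for G1/S, nocodazole release for mitosis), protein amounts in NP-40 versus SDS lysates quantified by mass spectrometry, three biological replicates.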
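Throughout, for solubility in G1/S (NP-40 vs SDS abundance): HeLa Kyoto cells arrested at G1/S by double thymidine block, proteins quantified by TMT10plex mass spectrometry in mild NP-40 versus SDS extracts, three biological replicates.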
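Throughout, for thermal stability score vs G1/S (z-score of summed log2 fold changes over temperatures): synchronized HeLa Kyoto cells, proteins quantified by TMT10plex mass spectrometry, three biological replicates, mitosis taken 0.5 h after nocodazole release, G1/S directly after double thymidine block.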

Chain of CTDSPL2 (chain, as listed by the source): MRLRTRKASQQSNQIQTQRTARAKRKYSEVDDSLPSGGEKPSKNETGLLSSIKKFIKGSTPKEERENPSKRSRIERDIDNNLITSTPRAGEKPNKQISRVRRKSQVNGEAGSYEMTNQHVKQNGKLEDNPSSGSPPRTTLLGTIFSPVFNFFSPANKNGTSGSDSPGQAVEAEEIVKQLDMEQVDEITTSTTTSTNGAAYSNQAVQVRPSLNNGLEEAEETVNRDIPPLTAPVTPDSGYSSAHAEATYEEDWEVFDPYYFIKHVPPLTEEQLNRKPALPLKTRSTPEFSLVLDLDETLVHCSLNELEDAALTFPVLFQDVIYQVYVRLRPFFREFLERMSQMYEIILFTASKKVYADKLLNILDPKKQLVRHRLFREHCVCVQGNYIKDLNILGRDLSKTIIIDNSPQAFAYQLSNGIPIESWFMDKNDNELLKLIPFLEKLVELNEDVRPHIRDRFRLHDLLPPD

| Substance | solubility in G1/S (log2) [1] | thermal stability score [2, 5] | thermal stability score ([2]; cell cycle stage: mitosis) | melting temperature ([3]; cell cycle stage: G1/S) [°C] | melting temperature ([3]; cell cycle stage: mitosis) [°C] | solubility change mitosis (log2) [4] |
| --- | --- | --- | --- | --- | --- | --- |
| MWRGLWTLAAQAARGPRRLCTRRSSGAPAPGSGATIFALSSGQGRCGIAVIRTSGPASGHALRILTAPRDLPLARHASLRLLSDPRSGEPLDRALVLWFPGPQSFTGEDCVEFHVHGGPAVVSGVLQALGSVPGLRPAEAGEFTRRAFANGKLNLTEVEGLADLIHAETEAQRRQALRQLDGELGHLCRGWAETLTKALAHVEAYIDFGEDDNLEEGVLEQADIEVRALQVALGAHLRDARRGQRLRSGVHVVVTGPPNAGKSSLVNLLSRKPVSIVSPEPGTTRDVLETPVDLAGFPVLLSDTAGLREGVGPVEQEGVRRARERLEQADLILAMLDASDLASPSSCNFLATVVASVGAQSPSDSSQRLLLVLNKSDLLSPEGPGPGPDLPPHLLLSCLTGEGLDGLLEALRKELAAVCGDPSTDPPLLTRARHQHHLQGCLDALGHYKQSKDLALAAEALRVARGHLTRLTGGGGTEEILDIIFQDFCVGK [GTPBP3] | 0.505 | -0.238 | -0.0908 | 53.2 | 52.4 | 0.0593 |
| MNLEKLSKPELLTLFSILEGELEARDLVIEALKAQHRDTFIEERYGKYNISDPLMALQRDFETLKEKNDGEKQPVCTNPLSILKVVMKQCKNMQERMLSQLAAAESRHRKVILDLEEERQRHAQDTAEGDDVTYMLEKERERLTQQLEFEKSQVKKFEKEQKKLSSQLEEERSRHKQLSSMLVLECKKATNKAAEEGQKAGELSLKLEKEKSRVSKLEEELAAERKRGLQTEAQVEKQLSEFDIEREQLRAKLNREENRTKTLKEEMESLKKIVKDLEASHQHSSPNEQLKKPVTVSKGTATEPLMLMSVFCQTESFPAERTHGSNIAKMTNTGLPGPATPAYSYAKTNGHCDPEIQTTRELTAGNNVENQVPPREKSVALAQEKPVENGGCPVGIETPVPMPSPLSSSGSSLSPSSTASSSLTSSPCSSPVLTKRLLGSSASSPGYQSSYQVGINQRFHAARHKFQSQADQDQQASGLQSPPSRDLSPTLIDNSAAKQLARNTVTQVLSRFTSQQGPIKPVSPNSSPFGTDYRNLANTANPRGDTSHSPTPGKVSSPLSPLSPGIKSPTIPRAERGNPPPIPPKKPGLTPSPSATTPLTKTHSQAASLTTAEDLASSCSSNTVVANGKDVELLLPTSS [CTTNBP2NL] | 0.435 | -2.02 | -1.85 | 49.9 | 50.3 | -0.363 |
| MGRVVAELVSSLLGLWLLLCSCGCPEGAELRAPPDKIAIIGAGIGGTSAAYYLRQKFGKDVKIDLFEREEVGGRLATMMVQGQEYEAGGSVIHPLNLHMKRFVKDLGLSAVQASGGLLGIYNGETLVFEESNWFIINVIKLVWRYGFQSLRMHMWVEDVLDKFMRIYRYQSHDYAFSSVEKLLHALGGDDFLGMLNRTLLETLQKAGFSEKFLNEMIAPVMRVNYGQSTDINAFVGAVSLSCSDSGLWAVEGGNKLVCSGLLQASKSNLISGSVMYIEEKTKTKYTGNPTKMYEVVYQIGTETRSDFYDIVLVATPLNRKMSNITFLNFDPPIEEFHQYYQHIVTTLVKGELNTSIFSSRPIDKFGLNTVLTTDNSDLFINSIGIVPSVREKEDPEPSTDGTYVWKIFSQETLTKAQILKLFLSYDYAVKKPWLAYPHYKPPEKCPSIILHDRLYYLNGIECAASAMEMSAIAAHNAALLAYHRWNGHTDMIDQDGLYEKLKTEL [PCYOX1] | 0.102 | 1.46 | 0.959 | 56.6 | 57.1 | -0.225 |
| MAALGEPVRLERDICRAIELLEKLQRSGEVPPQKLQALQRVLQSEFCNAVREVYEHVYETVDISSSPEVRANATAKATVAAFAASEGHSHPRVVELPKTEEGLGFNIMGGKEQNSPIYISRIIPGGIADRHGGLKRGDQLLSVNGVSVEGEHHEKAVELLKAAQGKVKLVVRYTPKVLEEMESRFEKMRSAKRRQQT [LIN7C] | 0.382 | -0.659 | -0.713 | 50.1 | 51.5 | 0.202 |
| MAGQQFQYDDSGNTFFYFLTSFVGLIVIPATYYLWPRDQNAEQIRLKNIRKVYGRCMWYRLRLLKPQPNIIPTVKKIVLLAGWALFLFLAYKVSKTDREYQEYNPYEVLNLDPGATVAEIKKQYRLLSLKYHPDKGGDEVMFMRIAKAYAALTDEESRKNWEEFGNPDGPQATSFGIALPAWIVDQKNSILVLLVYGLAFMVILPVVVGSWWYRSIRYSGDQILIRTTQIYTYFVYKTRNMDMKRLIMVLAGASEFDPQYNKDATSRPTDNILIPQLIREIGSINLKKNEPPLTCPYSLKARVLLLSHLARMKIPETLEEDQQFMLKKCPALLQEMVNVICQLIVMARNREEREFRAPTLASLENCMKLSQMAVQGLQQFKSPLLQLPHIEEDNLRRVSNHKKYKIKTIQDLVSLKESDRHTLLHFLEDEKYEEVMAVLGSFPYVTMDIKSQVLDDEDSNNITVGSLVTVLVKLTRQTMAEVFEKEQSICAAEEQPAEDGQGETNKNRTKGGWQQKSKGPKKTAKSKKKKPLKKKPTPVLLPQSKQQKQKQANGVVGNEAAVKEDEEEVSDKGSDSEEEETNRDSQSEKDDGSDRDSDREQDEKQNKDDEAEWQELQQSIQRKERALLETKSKITHPVYSLYFPEEKQEWWWLYIADRKEQTLISMPYHVCTLKDTEEVELKFPAPGKPGNYQYTVFLRSDSYMGLDQIKPLKLEVHEAKPVPENHPQWDTAIEGDEDQEDSEGFEDSFEEEEEEEEDDD [SEC63] | -0.14 | -0.144 | -1.37 | 53 | 53.1 | -0.1 |
| MAETEALSKLREDFRMQNKSVFILGASGETGRVLLKEILEQGLFSKVTLIGRRKLTFDEEAYKNVNQEVVDFEKLDDYASAFQGHDVGFCCLGTTRGKAGAEGFVRVDRDYVLKSAELAKAGGCKHFNLLSSKGADKSSNFLYLQVKGEVEAKVEELKFDRYSVFRPGVLLCDRQESRPGEWLVRKFFGSLPDSWASGHSVPVVTVVRAMLNNVVRPRDKQMELLENKAIHDLGKAHGSLKP [HTATIP2] | 0.148 | 2.61 | 4.75 | 50.8 | 50.2 | -0.095 |
| CTDSPL2 | -0.599 | 2.66 | 4.58 | 48.4 | 48.7 | 0.46 |
| MEGQRWLPLEANPEVTNQFLKQLGLHPNWQFVDVYGMDPELLSMVPRPVCAVLLLFPITEKYEVFRTEEEEKIKSQGQDVTSSVYFMKQTISNACGTIGLIHAIANNKDKMHFESGSTLKKFLEESVSMSPEERARYLENYDAIRVTHETSAHEGQTEAPSIDEKVDLHFIALVHVDGHLYELDGRKPFPINHGETSDETLLEDAIEVCKKFMERDPDELRFNAIALSAA [UCHL3] | 0.205 | 0.593 | -0.422 | 52.2 | 52.2 | 0.183 |
| MDSLEEPQKKVFKARKTMRVSDRQQLEAVYKVKEELLKTDVKLLNGNHENGDLDPTSPLENMDYIKDKEEVNGIEEICFDPEGSKAEWKETPCILSVNVKNKQDDDLNCEPLSPHNITPEPVSKLPAEPVSGDPAPGDLDAGDPASGVLASGDSTSGDPTSSEPSSSDAASGDATSGDAPSGDVSPGDATSGDATADDLSSGDPTSSDPIPGEPVPVEPISGDCAADDIASSEITSVDLASGAPASTDPASDDLASGDLSSSELASDDLATGELASDELTSESTFDRTFEPKSVPVCEPVPEIDNIEPSSNKDDDFLEKNGADEKLEQIQSKDSLDEKNKADNNIDANEETLETDDTTICSDRPPENEKKVEEDIITELALGEDAISSSMEIDQGEKNEDETSADLVETINENVIEDNKSENILENTDSMETDEIIPILEKLAPSEDELTCFSKTSLLPIDETNPDLEEKMESSFGSPSKQESSESLPKEAFLVLSDEEDISGEKDESEVISQNETCSPAEVESNEKDNKPEEEEQVIHEDDERPSEKNEFSRRKRSKSEDMDNVQSKRRRYMEEEYEAEFQVKITAKGDINQKLQKVIQWLLEEKLCALQCAVFDKTLAELKTRVEKIECNKRHKTVLTELQAKIARLTKRFEAAKEDLKKRHEHPPNPPVSPGKTVNDVNSNNNMSYRNAGTVRQMLESKRNVSESAPPSFQTPVNTVSSTNLVTPPAVVSSQPKLQTPVTSGSLTATSVLPAPNTATVVATTQVPSGNPQPTISLQPLPVILHVPVAVSSQPQLLQSHPGTLVTNQPSGNVEFISVQSPPTVSGLTKNPVSLPSLPNPTKPNNVPSVPSPSIQRNPTASAAPLGTTLAVQAVPTAHSIVQATRTSLPTVGPSGLYSPSTNRGPIQMKIPISAFSTSSAAEQNSNTTPRIENQTNKTIDASVSKKAADSTSQCGKATGSDSSGVIDLTMDDEESGASQDPKKLNHTPVSTMSSSQPVSRPLQPIQPAPPLQPSGVPTSGPSQTTIHLLPTAPTTVNVTHRPVTQVTTRLPVPRAPANHQVVYTTLPAPPAQAPLRGTVMQAPAVRQVNPQNSVTVRVPQTTTYVVNNGLTLGSTGPQLTVHHRPPQVHTEPPRPVHPAPLPEAPQPQRLPPEAASTSLPQKPHLKLARVQSQNGIVLSWSVLEVDRSCATVDSYHLYAYHEEPSATVPSQWKKIGEVKALPLPMACTLTQFVSGSKYYFAVRAKDIYGRFGPFCDPQSTDVISSTQSS [ATF7IP] | 0.0405 | 0.103 | 1.25 | 49 | 49.8 | -0.146 |
| MEAQAQGLLETEPLQGTDEDAVASADFSSMLSEEEKEELKAELVQLEDEITTLRQVLSAKERHLVEIKQKLGMNLMNELKQNFSKSWHDMQTTTAYKKTHETLSHAGQKATAAFSNVGTAISKKFGDMSYSIRHSISMPAMRNSPTFKSFEERVETTVTSLKTKVGGTNPNGGSFEEVLSSTAHASAQSLAGGSRRTKEEELQC [TPD52L1] | 0.458 | -3.64 | -3.95 | 54.4 | 53.6 | 0.111 |
| SPCS2 | 0.173 | -0.361 | -0.329 | 51.9 | 52.8 | -0.0337 |
| MADGKAGDEKPEKSQRAGAAGGPEEEAEKPVKTKTVSSSNGGESSSRSAEKRSAEEEAADLPTKPTKISKFGFAIGSQTTKKASAISIKLGSSKPKETVPTLAPKTLSVAAAFNEDEDSEPEEMPPEAKMRMKNIGRDTPTSAGPNSFNKGKHGFSDNQKLWERNIKSHLGNVHDQDN [PCNP] | 0.559 | -1.76 | -6.06 | 59.4 | 53.8 | 0.0732 |
| MSKSFQQSSLSRDSQGHGRDLSAAGIGLLAAATQSLSMPASLGRMNQGTARLASLMNLGMSSSLNQQGAHSALSSASTSSHNLQSIFNIGSRGPLPLSSQHRGDADQASNILASFGLSARDLDELSRYPEDKITPENLPQILLQLKRRRTEEGPTLSYGRDGRSATREPPYRVPRDDWEEKRHFRRDSFDDRGPSLNPVLDYDHGSRSQESGYYDRMDYEDDRLRDGERCRDDSFFGETSHNYHKFDSEYERMGRGPGPLQERSLFEKKRGAPPSSNIEDFHGLLPKGYPHLCSICDLPVHSNKEWSQHINGASHSRRCQLLLEIYPEWNPDNDTGHTMGDPFMLQQSTNPAPGILGPPPPSFHLGGPAVGPRGNLGAGNGNLQGPRHMQKGRVETSRVVHIMDFQRGKNLRYQLLQLVEPFGVISNHLILNKINEAFIEMATTEDAQAAVDYYTTTPALVFGKPVRVHLSQKYKRIKKPEGKPDQKFDQKQELGRVIHLSNLPHSGYSDSAVLKLAEPYGKIKNYILMRMKSQAFIEMETREDAMAMVDHCLKKALWFQGRCVKVDLSEKYKKLVLRIPNRGIDLLKKDKSRKRSYSPDGKESPSDKKSKTDGSQKTESSTEGKEQEEKSGEDGEKDTKDDQTEQEPNMLLESEDELLVDEEEAAALLESGSSVGDETDLANLGDVASDGKKEPSDKAVKKDGSASAAAKKKLKKVDKIEELDQENEAALENGIKNEENTEPGAESSENADDPNKDTSENADGQSDENKDDYTIPDEYRIGPYQPNVPVGIDYVIPKTGFYCKLCSLFYTNEEVAKNTHCSSLPHYQKLKKFLNKLAEERRQKKET [MATR3] | -0.173 | 9.67 | 19.4 | 45.7 | 48.2 | 0.223 |
